# Test results as given in doi:10.1101/2025.11.18.689095 (bioRxiv, 2025).
# B1: K118A: K118A mutation in hTom70 (protein)
# chain: MNSLDRAQAAANKGNKYFKAGKYEQAIQCYTEAISLCPTEKNVDLSTFYQNRAAAFEQLQKWKEVAQDCTKAVELNPKYVKALFRRAKAHEKLDNKKECLEDVTAVCILEGFQNQQSMLLADKVLKLLGKEKAKEKYKNREPLMPSPQFIKSYFSSFTDDIISQPMLKGEKSDEDKDKEGEALEVKENSGYLKAKQYMEEENYDKIISECSKEIDAEGKYMAEALLLRATFYLLIGNANAAKPDLDKVISLKEANVKLRANALIKRGSMYMQQQQPLLSTQDFNMAADIDPQNADVYHHRGQLKILLDQVEEAVADFDECIRLRPESALAQAQKCFALYRQAYTGNNSSQIQAAMKGFEEVIKKFPRCAEGYALYAQALTDQQQFGKADEMYDKCIDLEPDNATTYVHKGLLQLQWKQDLDRGLELISKAIEIDNKCDFAYETMGTIEVQRGNMEKAIDMFNKAINLAKSEMEMAHLYSLCDAAHAQTEVAKKYGLKPPTL
# B2: K188A: K188A mutation in Tom70 (protein)
# chain: MNSLDRAQAAKNKGNKYFKAGKYEQAIQCYTEAISLCPTEKNVDLSTFYQNRAAAFEQLQKWKEVAQDCTKAVELNPKYVAALFRRAKAHEKLDNKKECLEDVTAVCILEGFQNQQSMLLADKVLKLLGKEKAKEKYKNREPLMPSPQFIKSYFSSFTDDIISQPMLKGEKSDEDKDKEGEALEVKENSGYLKAKQYMEEENYDKIISECSKEIDAEGKYMAEALLLRATFYLLIGNANAAKPDLDKVISLKEANVKLRANALIKRGSMYMQQQQPLLSTQDFNMAADIDPQNADVYHHRGQLKILLDQVEEAVADFDECIRLRPESALAQAQKCFALYRQAYTGNNSSQIQAAMKGFEEVIKKFPRCAEGYALYAQALTDQQQFGKADEMYDKCIDLEPDNATTYVHKGLLQLQWKQDLDRGLELISKAIEIDNKCDFAYETMGTIEVQRGNMEKAIDMFNKAINLAKSEMEMAHLYSLCDAAHAQTEVAKKYGLKPPTL
# B3: N158A: N158A mutation in hTom70 (protein)
# chain: MNSLDRAQAAKNKGNKYFKAGKYEQAIQCYTEAISLCPTEKNVDLSTFYQARAAAFEQLQKWKEVAQDCTKAVELNPKYVKALFRRAKAHEKLDNKKECLEDVTAVCILEGFQNQQSMLLADKVLKLLGKEKAKEKYKNREPLMPSPQFIKSYFSSFTDDIISQPMLKGEKSDEDKDKEGEALEVKENSGYLKAKQYMEEENYDKIISECSKEIDAEGKYMAEALLLRATFYLLIGNANAAKPDLDKVISLKEANVKLRANALIKRGSMYMQQQQPLLSTQDFNMAADIDPQNADVYHHRGQLKILLDQVEEAVADFDECIRLRPESALAQAQKCFALYRQAYTGNNSSQIQAAMKGFEEVIKKFPRCAEGYALYAQALTDQQQFGKADEMYDKCIDLEPDNATTYVHKGLLQLQWKQDLDRGLELISKAIEIDNKCDFAYETMGTIEVQRGNMEKAIDMFNKAINLAKSEMEMAHLYSLCDAAHAQTEVAKKYGLKPPTL
# B4: R192A: R192A mutation in Tom70 (protein)
# chain: MNSLDRAQAAKNKGNKYFKAGKYEQAIQCYTEAISLCPTEKNVDLSTFYQNRAAAFEQLQKWKEVAQDCTKAVELNPKYVKALFARAKAHEKLDNKKECLEDVTAVCILEGFQNQQSMLLADKVLKLLGKEKAKEKYKNREPLMPSPQFIKSYFSSFTDDIISQPMLKGEKSDEDKDKEGEALEVKENSGYLKAKQYMEEENYDKIISECSKEIDAEGKYMAEALLLRATFYLLIGNANAAKPDLDKVISLKEANVKLRANALIKRGSMYMQQQQPLLSTQDFNMAADIDPQNADVYHHRGQLKILLDQVEEAVADFDECIRLRPESALAQAQKCFALYRQAYTGNNSSQIQAAMKGFEEVIKKFPRCAEGYALYAQALTDQQQFGKADEMYDKCIDLEPDNATTYVHKGLLQLQWKQDLDRGLELISKAIEIDNKCDFAYETMGTIEVQRGNMEKAIDMFNKAINLAKSEMEMAHLYSLCDAAHAQTEVAKKYGLKPPTL
# Test system: biotinylated full-length Hsp90
# Test: BLI, Tom70 mutants binding to biotinylated full-length Hsp90
# Design: species or system human
# Conditions: biotinylated full-length Hsp90 immobilized, Tom70 40 µM, Fig S7B
# Description: Biotinylated Hsp90 proteins were immobilized onto streptavidin biosensor probes, and experiments were conducted in buffer containing 20 mM sodium phosphate (pH 7), 150 mM NaCl, 1% BSA, 0.6 M sucrose, and 1 mM TCEP[68]. […] To combat heterogenous binding, dissociation curves were fit with a two-phase exponential curve. Due to the association rate (kon) being too rapid to quantify, kon values were indirectly estimated by combining koff values obtained from BLI with KD values determined by ITC ( kon=koffBLI/KDITC ). All data are corrected for non-specific binding. Error is given as the standard deviation of at least two measurements.
# Supplementary Figure 7: (A) Interacting residues between Tom70 and Hsp90EEVD peptide. (B) BLI sensorgrams of biotinylated full-length Hsp90 assayed to Tom70 mutants. WT refers to “wild-type” Tom70. All Tom70 concentrations are at 40 µM. Dotted line demarcates the beginning of the dissociation phase. (C-D) ITC thermograms and isotherms for the interaction of Tom70 to an (C) amidated Hsp90EEVD peptide and a (D) Hsp90EQVD peptide. N.D. stands for “not-detected” due to the lack of sufficient heat generated.
# (1 picture or pasted object on this page, not shown here)
row,Molecule,binding of Tom70 mutant to Hsp90
1,B1,eliminated binding
2,B2,abrogated binding
3,B3,eliminated binding
4,B4,abrogated binding
